Source: the DeepSol protein solubility set

Assay: soluble on expression in E. coli; label from the status in PepcDB or PDB records

Soluble on expression in E. coli, not soluble:
MGSDKIHHHHHHMRKMKNNDKSVITVDLNDPVKSLEYLEEAFQIGTFILKNSPVNFKRLAKVLSDLDTFYNLDFKTKIDISGQISGGGATRGYFPLGVESGLVDVFEKKESYSFGWPDNEIPDSDASNLSLVAPNIYPDHGYINPDDINGLIKDFANAAKKLSRLIEIILFNGKTVLPIDESSDFQSLLRSFRYYKKTEFDPPNTGANSLHTDWNLITLVYADADGYQYRDNEGNFQNIIPEMEDCLIVNFGDFLSAWTGGKIVSPWHQVVEAKKKDVRNSLVFFYYPAASSSAVKNPIYNQGEPLSLFVDQSDPLNRLWDFSKIETMNEMYAGKWKQVSRK, MGSDKIHHHHHHMRKVGMTTTIPVEVVYAAGLIPVDLNNIFVTHENPQSLVEEAEMAGYPRNLCAWIKGLYSTILQNDDIQTLIAVTQGDCSNTHALMETLEMAGVNVIPFAFPFDRDYDLLKLQMEKLINTLGTTWDEVYHAKKRLDAIRSKVHELDRLTWQGDRVRGWDNHLYQVCCSDLEGDPEDFGRRVDQYLAELPAKEPIKAKVRLAYIGVPPIMDDLYDYVEERGARVVFNEVQRQFTMPFATDDIVEQYRIYSYPYGIFYRLQDISRELEQRQVDGVIHYAQSFCYRQIEDLIVRQKLKYPILTLEGDKPNKLDARTRMRLDAFLDMLR, MGSDKIHHHHHHMRKWLLGVTAALALTALAACGTESSSTSGEEDQDVTIGYFPNLDHAAAIVGKEKGFFAEELGEEKVEFTHFPNGNDFIEALSTGSIDIGYVGPGPAINYYLTGGDVVVLGSAANGATLIVARDGSGIDTLDDFDGKSFCTPGNGCTHNVQLEIMLKELGLESNRVGGTVEHQSRIAPSNMVAMFEQGQIDAAAAPEPWGTYLVEELGAHVVAEWNDVFLGEELASVVVVTTREFLENHPEQVEAFLRAHVKSVEFAQEDVDATLETVNDALFDLTQNRLPEDVLYKAWERMAVTTDTYPDALQAWADASYELKFMDEDPNLDGFVDTSLLDSILSE, MGSDKIHHHHHHMRLKITHRTEYRYDAPVQYLLQRLRLLPVSGQTQTVLSWALKVEGAREEVRFTDHYGNDTRLLSVEGDHDFITVEASGEVVTRDTSGVCGSHQGFAPLWLFAQETPLTAIGGGIRKLAEAVGTGTDIERLHRLMAMIGERVAYTPGSTKATTPAEEALALKTGVCQDHSHIFAAAARAMGFPSRYVSGYLMMDAVEQAASHAWAEAHVPGLGWVAFDPANGISPDERYVKVATGRDYRDASPVSGIRQGQAEERLAVTVTVEQ, MGSDKIHHHHHHMRLTHVDQLNLPFGTLSSYHPYASAPGEAVPVSFDQQRHVGAGERPGSWMAISVSMPKAISREELERAWLEVIERHGTLRTVFSTGMGGEVQQHRIDVGPGKWIDHAVAPGESINEALRAVLNRQCSPYSRPSHSLCIIDAHPRPTVIIGSDHSHVDMWSMLVIVRDLLAALDMELPVEPPLAFESHTAELLAAPPAPERIHQRWREILEAGGGKMPQFPLPLGDAISMPERVEVRDIFGVNGLAIYSARARAQQVSSLALTISVMADVTAALADLPLRAVFPVHSRFDQRWHDSVGWFISNSVIEVPDSDPHTAAQAVREAVSLGSYPLAELLEPWGGMPETPGMFAISWLDLRRLPVSIDDIGLQAQYVSASLRTDGVMLWFILDRSGAHLRCRYPDSLVARENVGRWIDAIVAQMRAEAGTVNLQAGGEQLTLRHGTRADISEIAPLLARNAADPCELVDLEHALDLLTHESSHFLAVVRNARGKIIAAMQLTIVPEFSRGGALHLHIEGPFIIPEYRTTDLDKKLRAWAVEHGRARGVKVEEVVG, MGSDKIHHHHHHMRNAVIFTGIPMQYPLELTFKFWALAPQISVIDAQGNLVFYVKQKLFKLKEAITIFADVERTRPLYYIKADRIIDFSARYEFTDSNGTNIGAVKRRGLKSLWRARYDIFDGDTTTLNIQEKNPWVKIADALFAEIPIVGIFTGYVFNPVYLVSRSDGTVVMRLEKIPSFLSRKFTIKQVDQISDREEQQVLLSLMMMLLLERNRG, MGSDKIHHHHHHMRPAFAGIDFGTSNSTVGVVRNGQPHLVALEGGQVTLPSAVFFNFEDGRICFGRQAIANYTDSVEGRLMRSLKSVLGSSLAHEKTRIKARSIGFMEIIGLFLGHLRKKLEEDGGDLVETVVLGRPVQFVDDDPQADANAQSDLEKAAHAQGFKHIAFQFEPIAAALDYEQRVTREELALIIDMGGGTSDFSVVRVSPERARLPDRKDDILASRGVHIGGTDFDRLLSIAHVMPQLGYLTPTKDGKRNLPASYFIDLATWQRINLVYTAKAMTHLRQIRYEAARADLVDRFIHIVEHRYGHALAALVEKAKIELTDLSSAEVAVRLSDVEFAAEITRDGLDATIAREIERVTATVAETMRDAAVKPSDITAVFLTGGSTAIPLARREILSLVPQASVIDGDMFGSVGLGLALDAQRKFG, MGSDKIHHHHHHMRPETAIIEIHGQYRIHTEFYGNPAAQQTIILVNGSLSTTASFAQTVKYLQPHYNVVLYDQPYAGQSKPHNENHTPISKECEARILLELIERFRAEVVMSFSWGGVATLLALAQRPGRIRRAVVNSFSPQLNPAMLDYLHRGLDYLAACDRTQIGNLVNETIGRYLPQLFKRYNFRHVSSLDEHEYHQMHFHIREVLRLNADSYTESFAGIEIPMLFMNGELDIYTTPHEARQFGQLIRGAEFHTIRNAGHFIDVEHKAAWQQTQDALLAFLRPQRTQPLNPIYRPQPNGASVPLAALAS, MGSDKIHHHHHHMRQGAGLGYRRDLAEGFLQLRNNDRIQFMEIAPENWIKMGGFARYQFDKVAEKIPILIHGLSLSLGGQAPLDKELLSSIKAMIKQYNTPFFSDHLSFCECDGHLYDLLPMPFTDEAVKHTAARIREVQDFLEIQISVENTSYYLHSETSTMNEVEFLNAIVQEANCGIHLDVNNIYVNAVNHGLLDPHVFIDNVDLKRVNYIHIAGHDDEHAATEVQIQTSESFNKIKGDLRHLPPLLVDTHGENVKGTVWDLLEYTYARLSHMPPTLLERDFNFPPFEKLCKEVDIIHQLQQKYVKKRGLSWLKI, MGSDKIHHHHHHMRREKKKGSDDQMADENEEYLMETRFSAEHIGLKLLEKKIITEQQFEDALRRQKSRGGGLGDVLIELGYLTEERLNQLLNAFPSVPKTIEDTGLDASFLADLVLKHSLSLREFRLADMVRRVKLPLSIVDSIVETLQREKMLEVKGGDGLARATYRFSITGIGENRAAGLLEICRYVGPAPVSLSDYREKVLTQSIQRVVVNPLTLKNALSHLVINPDLLKALGPALTSGQTIFLYGPTGNGKSSIAEAIGNVLPGTIFVPYAVYVEGELITVFDPVNHVPAPSETEDGKMDHRWLQIRRPVIMTGGELTLRTLDLEFNPISKFYIAPLQMKANNGLFIIDDFGRQQIEPKMLLNRWIVPLEKRVDFLTLHTGMKFSIPFDQLVIFATNLKPMELADEAFLRRIRYKIFIDYPSKEDFEVIFRKACEMKNVAFDPKAFQFLQDIYEKLGIQRSANHPRDLLEHIIDQSRYYGQEPELTVEGVSAAWEQNFIKNF, MGSDKIHHHHHHMRRLLTGCLLSSARPLKSRLPLLMSSSLPSSAGKKPKQATLARFFTSMKNKPTEGTPSPKKSSKHMLEDRMDNVSGEEEYATKKLKQTAVTHTVAAPSSMGSNFSSIPSSAPSSGVADSPQQSQRLVGEVEDALSSNNNDHYSSNIPYSEVCEVFNKIEAISSRLEIIRICSDFFIKIMKQSSKNLIPTTYLFINRLGPDYEAGLELGLGENLLMKTISETCGKSMSQIKLKYKDIGDLGEIAMGARNVQPTMFKPKPLTVGEVFKNLRAIAKTQGKDSQLKKMKLIKRMLTACKGIEAKFLIRSLESKLRIGLAEKTVLISLSKALLLHDENREDSPDKDVPMDVLESAQQKIRDAFCQVPNYEIVINSCLEHGIMNLDKYCTLRPGIPLKPMLAKPTKAINEVLDRFQGETFTSEYKYDGERAQVHLLNDGTMRIYSRNGENMTERYPEINITDFIQDLDTTKNLILDCEAVAWDKDQGKILPFQVLSTRKRKDVELNDVKVKVCLFAFDILCYNDERLINKSLKERREYLTKVTKVVPGEFQYATQITTNNLDELQKFLDESVNHSCEGLMVKMLEGPESHYEPSKRSRNWLKLKKDYLEGVGDSLDLCVLGAYYGRGKRTGTYGGFLLGCYNQDTGEFETCCKIGTGFSDEMLQLLHDRLTPTIIDGPKATFVFDSSAEPDVWFEPTTLFEVLTADLSLSPIYKAGSATFDKGVSLRFPRFLRIREDKGVEDATSSDQIVELYENQSHMQN, MGSDKIHHHHHHMRTPTCDITTHERWFGAFTAPYLEEGPEHVGPVRLKIEHTHHVLSNARSIVDSEDFSPLVQRAALLAALYHDTGRFPQYRRWRTFSDPRSVNHALLGGRTLREAGALDDEPVEVRRLVLGAVVMHNRFRVPSGIPDDARTVTDVVRDADKLDIFRVMAPHLAPGAERDKVVVLHVEDAPGKWSPVIVADVLAGRVASYADLRYVNDFRLLLGTWVRDLRFPASRRMLAASGLVENILSALPASDDIARARTRILSDLADAARGRGGA, MGSDKIHHHHHHMRVAPAYGKIALLISVSFSHGRHSVQDKNFDALAGKFAKNIYGTPKGEVRAAVLWRDISQAMTQLPEGPLRILDAGGGFGFFSQKLAKLGHSVTLCDISSEMLALGQAQITEYENNSGEKLDITLLHAPIQSLTREELGQFDLILCHAVAEWLSDAKQTLAGLTQLLKPQGLFSLMFYNKEAMRFHSLISGNFDYVAADFKVKKKVGLTPSYPLYIDDVRGWVSDWQMELVTASGVRVIHDYLKTHQPPNSDFSQLLEMELQYSTHPAYIGLGRYVHFITRWQR, MGSDKIHHHHHHMRVILAQPRGFCAGVVRAIEIVDRALQQHGAPVYVRHEIVHNRHVVDNLRQKGARFVEELDEVPQGAVAIFSAHGVAQTVERDAEARGLDVLDATCPLVTKVHVQGRQYVGAGRTLILIGHAGHPEVEGTVGQIPGKVLLVQSEAEVENLDLPLDTPLAYVTQTTLSVDDTRGIIDALLSRFTDIVGPDTRDICYATQNRQAAVRELSKQVDVLLVVGATNSSNSNRLREIGSESGVASYLVADGSEVKPEWFANVQTVGITAGASAPEEMVKNVIDALSALGPVDVTTMAGREEKVEFKLPSKLMQPLAAREV, MGSDKIHHHHHHMRVITVAGPPSVGKTSVVVKTATTLAAQGHRLGIVKFDSLSTSDDQVYRRAGLPVVVGLSGNVCPDHFFVSNIDDCVDWGRTHGVDILVAESAGLCNRCSPHVQGVQAICVVDNLSGVHTPRKIGPMLKLADVVVITKGDIVSQAEREVFAYNVRLANPRAQVMQFHGITGQGASDLAARMLCAPVVDALEGRRLRFSMPSAVCPYCIGETAIGVDHQRGNVRKMSFAEPAR, MGSDKIHHHHHHMRVPPHNLEAEVAVLGSILIDPSVINDVLEILSHEDFYLKKHQHIFRAMEELYDEGKPVDVVSVCDKLQSMGKLEEVGGDLEVAQLAEAVPSSAHALHYAEIVKEKSILRKLIEISRKISESAYMEEDVEILLDNAEKMIFEISEMKTTKSYDHLRGIMHRVFENLENFRERANLIEPGVLITGLPTGFKSLDKQTTGFHSSDLVIIAARPSMGKTSFALSIARNMAVNFEIPVGIFSLEMSKEQLAQRLLSMESGVDLYSIRTGYLDQEKWERLTIAASKLYKAPIVVDDESLLDPRSLRAKARRMKKEYDVKAIFVDYLQLMHLKGRKESRQQEISEISRSLKLLARELDIVVIALSQLSRAVEQREDKRPRLSDLRESGAIEQDADTVIFIYREEYYRSKKSKEESKLHEPHEAEIIIGKQRNGPVGTITLIFDPRTVTFHEVDVVHS, MGSDKIHHHHHHMRYPEGMALQNKFPILWDCFLQRINDALKATTQEELGRRLGVGKSAITKWRHGSTRGADLQDFLRYCDVLGIDFCGIINGTPTPTYSPSPFEIALTGVLDSFLSVHNLTHEKAASSLWPETANGAAKLGSILTAKEPLTPEVLMQLCLLMEEDPGKLLRLARERVQPEGEQISGNAKSA
